According to patent US20260097113A1 (Pfizer, published 2026):

T1: RSV F protein of subtype A comprising a polypeptide of SEQ ID NO: 1 and a polypeptide of SEQ ID NO: 2 (RSV subtype A, UniProt P11209 137-513; P03420 26-109)
T1 construct: Stabilized prefusion F trimer made of three F2-F1 heterodimers; Produced recombinantly in CHO cells; also called RSV A; RSVA
T1 chain 1: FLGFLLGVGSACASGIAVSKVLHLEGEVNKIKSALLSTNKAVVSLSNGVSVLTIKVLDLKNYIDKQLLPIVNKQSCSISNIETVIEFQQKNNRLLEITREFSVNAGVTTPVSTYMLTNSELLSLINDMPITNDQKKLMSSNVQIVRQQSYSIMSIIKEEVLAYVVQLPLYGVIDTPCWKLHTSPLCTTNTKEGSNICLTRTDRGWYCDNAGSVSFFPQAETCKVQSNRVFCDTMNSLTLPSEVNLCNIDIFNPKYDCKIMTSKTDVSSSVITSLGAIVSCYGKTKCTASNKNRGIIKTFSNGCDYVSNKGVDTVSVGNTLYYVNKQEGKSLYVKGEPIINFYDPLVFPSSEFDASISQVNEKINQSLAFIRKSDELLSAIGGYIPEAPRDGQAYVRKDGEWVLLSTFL
T1 chain 2: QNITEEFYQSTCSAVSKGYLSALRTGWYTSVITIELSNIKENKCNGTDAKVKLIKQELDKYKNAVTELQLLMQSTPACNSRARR


Experiments:
[1] = target: RSV A + RSV B bivalent composition (RSV subtype A; RSV subtype B); experiment: AM14 Fab titration by SEC; High-Slow 2 cycle; T0 (second value)
[2] = target: RSV A + RSV B bivalent composition (RSV subtype A; RSV subtype B); experiment: AM14 Fab titration by SEC; High-Slow 2 cycle; 1 M 25°C (second value)
[3] = target: RSV A + RSV B bivalent composition (RSV subtype A; RSV subtype B); experiment: AM14 Fab titration by SEC; composition of Table 14; Drying Temp + Ramp Aggressive cycle
[4] = target: RSV A + RSV B bivalent composition (RSV subtype A; RSV subtype B); experiment: AM14 Fab titration by SEC; Target cycle; T0
[5] = target: RSV A + RSV B bivalent composition (RSV subtype A; RSV subtype B); experiment: AM14 Fab titration by SEC; High-Slow 2 cycle; 8 M 40°C
[6] = target: RSV A + RSV B bivalent composition (RSV subtype A; RSV subtype B); experiment: AM14 Fab titration by SEC; Low-Fast cycle; 1 M 2-8°C
[7] = target: RSV A + RSV B bivalent composition (RSV subtype A; RSV subtype B); experiment: AM14 Fab titration by SEC; Target cycle; 3 M 40°C
[8] = target: RSV A + RSV B bivalent composition (RSV subtype A; RSV subtype B); experiment: AM14 Fab titration by SEC; High-Slow 1 cycle; 1 M 2-8°C
[9] = target: RSV A + RSV B bivalent composition (RSV subtype A; RSV subtype B); experiment: AM14 Fab titration by SEC; Low-Fast cycle; 3 M 2-8°C
[10] = target: T1, RSV F protein of subtype A comprising a …; experiment: AM14 ELISA; F16 (pH 6, 0 mM NaCl, 0% sucrose); T0
[11] = target: T1, RSV F protein of subtype A comprising a …; experiment: AM14 ELISA; F2 (pH 8, 0 mM NaCl, 0% sucrose); 1 wk 25°C
[12] = target: T1, RSV F protein of subtype A comprising a …; experiment: AM14 ELISA; F15 (pH 6, 0 mM NaCl, 9% sucrose); 2 wk 25°C
[13] = target: T1, RSV F protein of subtype A comprising a …; experiment: AM14 ELISA; F14 (pH 7, 50 mM NaCl, 4.5% sucrose); T0
[14] = target: T1, RSV F protein of subtype A comprising a …; experiment: AM14 ELISA; F12 (pH 8, 100 mM NaCl, 9.0% sucrose); 1 wk 5°C
[15] = target: T1, RSV F protein of subtype A comprising a …; experiment: AM14 ELISA; F9 (pH 8, 50 mM NaCl, 4.5% sucrose); 1 wk 25°C
[16] = target: T1, RSV F protein of subtype A comprising a …; experiment: AM14 ELISA; F7 (pH 6, 100 mM NaCl, 0% sucrose); 2 wk 5°C
[17] = target: T1, RSV F protein of subtype A comprising a …; experiment: AM14 ELISA; F17 (pH 7, 50 mM NaCl, 4.5% trehalose); 2 wk 5°C
[18] = target: T1, RSV F protein of subtype A comprising a …; experiment: AM14 ELISA; F6 (pH 7, 0 mM NaCl, 4.5% sucrose); 2 wk 5°C

Row | Molecule | Prefusion Content (%) [1] | Prefusion Content (%) [2] | Prefusion Content (%) [3] | Prefusion Content (%) [4] | Prefusion Content (%) [5] | Prefusion Content (%) [6] | Prefusion Content (%) [7] | Prefusion Content (%) [8] | Prefusion Content (%) [9] | AM14 prefusion content (%), relative to standard [10] | AM14 prefusion content (%), relative to standard [11] | AM14 prefusion content (%), relative to standard [12] | AM14 prefusion content (%), relative to standard [13] | AM14 prefusion content (%), relative to standard [14] | AM14 prefusion content (%), relative to standard [15] | AM14 prefusion content (%), relative to standard [16] | AM14 prefusion content (%), relative to standard [17] | AM14 prefusion content (%), relative to standard [18]
1 | AM14 Fab | 73% | 59% | 67% | 68% | 61% | 53% | 72% | 52% | 56% |  |  |  |  |  |  |  |  | 
2 | AM14 (trimeric prefusion specific antibody of the AM14 ELISA) (antibody, V domains shown, Antibody as used in the AM14 ELISA, detected with an HRP-labeled secondary antibody) VH: EVQLVESGGGVVQPGRSLRLSCAASGFSFSHYAMHWVRQAPGKGLEWVAVISYDGENTYYADSVKGRFSISRDNSKNTVSLQMNSLRPEDTALYYCARDRIVDDYYYYGMDVWGQGATVTVSS VL: DIQMTQSPSSLSASVGDRVTITCQASQDIKKYLNWYHQKPGKVPELLMHDASNLETGVPSRFSGRGSGTDFTLTISSLQPEDIGTYYCQQYDNLPPLTFGGGTKVEIKR |  |  |  |  |  |  |  |  |  | 80% | 58% | 91% | 102% | 98% | 84% | 38% | 64% | 77%
